Data from publication PMC9117659, “Phase transition and remodeling complex assembly are important for SS18-SSX oncogenic activity in synovial sarcomas” (Nature Communications, 2022).
Blank lines part the entries; values can stand above or below the binder they belong to.

Experiments:
Conditions in all cases: both partners purified
SNF11^(38-169) = target: T1, SNF11^(38-169) (S. cerevisiae, UniProt P38956 38-169); experiment: AUC; sedimentation velocity, 4 °C, interference detection, 50 mM MES pH 6.0, 50 mM NaCl, 1 mM EDTA, 1 mM DTT; SEDFIT
T1 construct: Cloned into one of the two multiple cloning sites of pETDuet-1
T1 sequence (looked up): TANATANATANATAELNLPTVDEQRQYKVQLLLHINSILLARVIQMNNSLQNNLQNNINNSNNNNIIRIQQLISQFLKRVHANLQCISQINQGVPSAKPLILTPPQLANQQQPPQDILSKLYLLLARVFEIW

SS18^(14-101) = target: T2, SS18^(14-101) (human, UniProt Q15532 14-101); experiment: as above
T2 construct: SS18, human, residues 14-101, includes the SNH domain; also called SS18 fragment aa 14-101 (includes the SNH domain); source: E. coli BL21(DE3) Codon Plus, purified

[1] = target: T3, Human SS18 (residues 1-387), purified recombinant (human, UniProt Q15532-2 1-387); experiment: SEC; purified human proteins or fragments run together on a size-exclusion column; coelution, fractions on SDS-PAGE
T3 construct: The MBP-his6 vector is told for the proteins studied in phase separation; also called SS18^(1-387); SS18-WT; source: E. coli BL21(DE3) Codon Plus, purified (Ni-NTA, SEC)
T3 sequence (Q15532 other isoform, or with tags, fused parts or gaps): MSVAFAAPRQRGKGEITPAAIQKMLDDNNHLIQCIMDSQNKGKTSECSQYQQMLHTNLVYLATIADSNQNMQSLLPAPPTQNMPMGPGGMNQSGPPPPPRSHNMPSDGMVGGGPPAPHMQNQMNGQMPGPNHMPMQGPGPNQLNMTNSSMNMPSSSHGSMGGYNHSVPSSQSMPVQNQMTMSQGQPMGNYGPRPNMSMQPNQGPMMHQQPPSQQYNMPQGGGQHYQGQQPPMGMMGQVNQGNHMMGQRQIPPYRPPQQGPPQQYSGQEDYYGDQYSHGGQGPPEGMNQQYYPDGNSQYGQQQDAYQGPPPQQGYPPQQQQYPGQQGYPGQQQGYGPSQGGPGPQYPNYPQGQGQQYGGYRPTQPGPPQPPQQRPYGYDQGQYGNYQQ

T2 sequence (Q15532 14-101): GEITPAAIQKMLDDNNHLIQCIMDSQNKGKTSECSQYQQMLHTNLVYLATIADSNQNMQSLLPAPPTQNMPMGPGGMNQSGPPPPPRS

stoichiometry N (SNF11^(38-169)): 1
B1: SNF2^(248-308), 60-residue fragment including the QLQ domain of SNF2 (domain or fragment, S. cerevisiae, UniProt P22082 248-308, looked up)
chain: FTAEQSELLKAQITSLKCLVNRKPIPFEFQAVIQKSINHPPDFKRMLLSLSEFARRRQPTD
notes: Cloned into one of the two multiple cloning sites of pETDuet-1

stoichiometry N (SS18^(14-101)): 1
B2: BRG1^(172-213) (domain or fragment, human, UniProt P51532 172-213, looked up)
chain: FNQNQLHQLRAQIMAYKMLARGQPLPDHLQMAVQGKRPMPGM
notes: In the crystal it stood fused to SS18^(14-101) on one chain; source: E. coli BL21(DE3) Codon Plus, purified

binding result [1]: binds
B3: BRG1^(1-282), N-terminal 282-residue fragment of BRG1 (domain or fragment, human, UniProt P51532 1-282, looked up)
chain: MSTPDPPLGGTPRPGPSPGPGPSPGAMLGPSPGPSPGSAHSMMGPSPGPPSAGHPIPTQGPGGYPQDNMHQMHKPMESMHEKGMSDDPRYNQMKGMGMRSGGHAGMGPPPSPMDQHSQGYPSPLGGSEHASSPVPASGPSSGPQMSSGPGGAPLDGADPQALGQQNRGPTPFNQNQLHQLRAQIMAYKMLARGQPLPDHLQMAVQGKRPMPGMQQQMPTLPPPSVSATGPGPGPGPGPGPGPGPAPPNYSRPHGMGGPNMPPPGPSGVPPGMPGQPPGGPPK
notes: Cloned into a modified pET32a (Trx-his6, N-terminal); the methods describe PreScission cleavage of the Trx-his6 tag in general; Cy3-labelled only for imaging; source: E. coli BL21(DE3) Codon Plus, purified (Ni-NTA, SEC, ion exchange); not shown: Trx, N-terminal, cleaved; His6, N-terminal, cleaved
